Measurements reported in PMC6019379, “RecA-like domain 2 of DNA-dependent ATPase A domain, a SWI2/SNF2 protein, mediates conformational integrity and ATP hydrolysis” (Bioscience Reports, 2018).

How the values were obtained:
Test in all cases: intrinsic tryptophan fluorescence titration; no ATP; Fluorescence titration (ex 295 nm, em 340 nm), one-site saturation fit; buffer, salt, pH and temperature not given in the material. Wild-type ADAAD Kd values are cited from ref 24 and not listed
Conditions in all cases: protein: recombinant; tags: His (Ni-NTA, pET-14b); hairpin
ADAAD S558A = biological target: T1, ADAAD S558A (Bos taurus (bovine), UniProt Q9TTA5 221-940, S778A)
T1 sequence: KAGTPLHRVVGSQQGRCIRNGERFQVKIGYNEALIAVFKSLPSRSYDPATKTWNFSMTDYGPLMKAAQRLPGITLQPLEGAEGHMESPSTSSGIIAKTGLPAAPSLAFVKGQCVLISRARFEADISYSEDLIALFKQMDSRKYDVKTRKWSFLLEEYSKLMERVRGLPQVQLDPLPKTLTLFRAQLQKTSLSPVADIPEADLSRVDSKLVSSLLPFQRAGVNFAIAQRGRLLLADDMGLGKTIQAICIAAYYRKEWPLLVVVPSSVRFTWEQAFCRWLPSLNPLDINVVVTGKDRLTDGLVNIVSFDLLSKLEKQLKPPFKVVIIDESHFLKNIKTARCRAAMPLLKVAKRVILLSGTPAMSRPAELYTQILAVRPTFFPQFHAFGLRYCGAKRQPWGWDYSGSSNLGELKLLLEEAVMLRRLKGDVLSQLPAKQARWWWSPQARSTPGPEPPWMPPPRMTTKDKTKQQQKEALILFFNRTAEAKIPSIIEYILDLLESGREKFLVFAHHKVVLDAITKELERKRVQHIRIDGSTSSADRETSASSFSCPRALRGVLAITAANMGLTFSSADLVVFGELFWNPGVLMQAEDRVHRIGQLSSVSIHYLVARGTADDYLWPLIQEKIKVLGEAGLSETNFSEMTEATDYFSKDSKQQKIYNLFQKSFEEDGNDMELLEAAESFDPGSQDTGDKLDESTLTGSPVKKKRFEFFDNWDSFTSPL

ADAAD R595H = biological target: T2, ADAAD R595H (Bos taurus (bovine), UniProt Q9TTA5 221-940, R815H)
T2 sequence: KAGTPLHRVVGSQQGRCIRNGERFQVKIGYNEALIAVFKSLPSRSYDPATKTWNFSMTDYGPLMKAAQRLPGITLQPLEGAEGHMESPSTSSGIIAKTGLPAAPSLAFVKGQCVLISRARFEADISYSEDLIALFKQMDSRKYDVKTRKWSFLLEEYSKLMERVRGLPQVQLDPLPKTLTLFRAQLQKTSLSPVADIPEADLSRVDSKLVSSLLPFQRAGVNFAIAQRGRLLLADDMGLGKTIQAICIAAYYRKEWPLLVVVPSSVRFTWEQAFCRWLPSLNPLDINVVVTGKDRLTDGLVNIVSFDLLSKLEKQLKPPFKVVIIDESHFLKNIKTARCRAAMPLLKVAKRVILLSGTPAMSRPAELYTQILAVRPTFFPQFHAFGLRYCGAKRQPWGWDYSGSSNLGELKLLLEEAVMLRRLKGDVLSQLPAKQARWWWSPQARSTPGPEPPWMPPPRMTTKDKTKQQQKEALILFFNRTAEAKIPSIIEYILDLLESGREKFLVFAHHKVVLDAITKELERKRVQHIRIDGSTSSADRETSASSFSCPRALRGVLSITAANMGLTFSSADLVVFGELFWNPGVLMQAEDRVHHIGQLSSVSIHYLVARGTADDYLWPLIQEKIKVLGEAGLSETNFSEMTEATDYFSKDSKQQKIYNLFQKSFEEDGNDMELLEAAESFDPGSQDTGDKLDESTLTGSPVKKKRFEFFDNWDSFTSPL

ADAAD R595K = biological target: T3, ADAAD R595K (Bos taurus (bovine), UniProt Q9TTA5 221-940, R815K)
T3 sequence: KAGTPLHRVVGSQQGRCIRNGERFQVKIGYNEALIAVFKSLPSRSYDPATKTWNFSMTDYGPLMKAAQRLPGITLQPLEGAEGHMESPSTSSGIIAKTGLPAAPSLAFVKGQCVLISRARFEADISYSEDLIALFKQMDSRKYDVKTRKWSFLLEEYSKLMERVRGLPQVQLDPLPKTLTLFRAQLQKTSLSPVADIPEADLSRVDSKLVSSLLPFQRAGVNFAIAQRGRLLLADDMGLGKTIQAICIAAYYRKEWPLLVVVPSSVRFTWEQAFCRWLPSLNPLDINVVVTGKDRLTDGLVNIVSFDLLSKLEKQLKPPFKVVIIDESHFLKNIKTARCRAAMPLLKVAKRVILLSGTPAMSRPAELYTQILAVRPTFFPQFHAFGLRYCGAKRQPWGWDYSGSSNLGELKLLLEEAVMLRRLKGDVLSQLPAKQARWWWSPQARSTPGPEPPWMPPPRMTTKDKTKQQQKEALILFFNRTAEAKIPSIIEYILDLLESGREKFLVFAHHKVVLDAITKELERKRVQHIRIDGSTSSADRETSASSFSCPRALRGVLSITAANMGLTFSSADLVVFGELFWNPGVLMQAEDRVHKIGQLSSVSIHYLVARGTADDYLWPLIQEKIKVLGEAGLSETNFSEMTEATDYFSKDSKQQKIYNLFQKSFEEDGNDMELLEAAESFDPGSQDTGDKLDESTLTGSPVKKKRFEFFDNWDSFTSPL

GCGCAATTGCGCTCGACGATTTTTTAGCGCAATTGCGC (structured_DNA) [slDNA (stem-loop DNA)]
Kd (ADAAD S558A): 11 ± 2.7 nM
Kd (ADAAD R595H): 24.3 ± 6.1 nM
Kd (ADAAD R595K): 25.1 ± 7.4 nM
